Test [1] deals with T1, MET (cMET, Sino Biological Cat. No. 10692-H08H) (UniProt P08581 25-932).
T1 construct: Soluble analyte of the BLI assays
As to the kind of experiment: BLI: antibody captured on anti-human Fc biosensor, MET in solution; three runs: pH 7.4 throughout (black), pH 6.4 throughout (light grey), association at pH 7.4 then release at lower pH (dark grey; key on D00015: pH 5.4; legend paragraph 84: pH 6.4); association 0-120 s. In general terms: In BLI a coated tip is dipped into the sample, and binding shifts an interference pattern.

The target in test [2] is T1, MET (cMET, Sino Biological Cat. No. …). As to the kind of experiment: BLI: antibody captured on anti-human Fc biosensor, MET in solution; association at pH 7.4 (0-120 s), dissociation at pH 7.4 (black trace) or pH 5.4 (grey trace). How it is done:
After allowing for four days of protein expression, cell culture supernatants were collected, quantified by SDS-PAGE analysis, and the pH dependence of the variant was evaluated using biolayer interferometry (BLI) on an Octet RED 96e instrument. Briefly, cell culture supernatants were diluted based on qualitative expression level of the variant determined by visual examination of SDS-PAGE gels, 5 μL of cell culture supernatant was diluted into 195 μL of 1×PBST, pH 7.4 for high expressors, 25 μL of cell culture supernatant was diluted into 175 μL of 1×PBST, pH 7.4 for medium expressors and 100 μL of cell culture supernatant was diluted into 100 μL of 1×PBST, pH 7.4 for low expressors for loading onto the sensor tips. Diluted supernatants were then captured on an anti-human Fc sensor (Forte Bio). A baseline was established using 1×PBST (50 mM Potassium Phosphate Buffer+150 mM NaCl+0.05% Tween 20), pH 7.4, and the sensor was associated with 50 nM of MET (cMET, Sino Biological Cat. No. 10692-H08H) in 1×PBST, pH 7.4, for 120 sec to generate an association curve. In the dissociation phase, the antibody-antigen complex on the sensor was exposed to 1×PBST, pH 7.4 or pH 5.4, for 300-600 sec.

The target of test [3] is T2, MET Proto-Oncogene, Receptor Tyrosine Kinase (MET), on cells (human, UniProt P08581 25-1390).
T2 construct: also called cMET; c-Met
T2 sequence (P08581 25-1390): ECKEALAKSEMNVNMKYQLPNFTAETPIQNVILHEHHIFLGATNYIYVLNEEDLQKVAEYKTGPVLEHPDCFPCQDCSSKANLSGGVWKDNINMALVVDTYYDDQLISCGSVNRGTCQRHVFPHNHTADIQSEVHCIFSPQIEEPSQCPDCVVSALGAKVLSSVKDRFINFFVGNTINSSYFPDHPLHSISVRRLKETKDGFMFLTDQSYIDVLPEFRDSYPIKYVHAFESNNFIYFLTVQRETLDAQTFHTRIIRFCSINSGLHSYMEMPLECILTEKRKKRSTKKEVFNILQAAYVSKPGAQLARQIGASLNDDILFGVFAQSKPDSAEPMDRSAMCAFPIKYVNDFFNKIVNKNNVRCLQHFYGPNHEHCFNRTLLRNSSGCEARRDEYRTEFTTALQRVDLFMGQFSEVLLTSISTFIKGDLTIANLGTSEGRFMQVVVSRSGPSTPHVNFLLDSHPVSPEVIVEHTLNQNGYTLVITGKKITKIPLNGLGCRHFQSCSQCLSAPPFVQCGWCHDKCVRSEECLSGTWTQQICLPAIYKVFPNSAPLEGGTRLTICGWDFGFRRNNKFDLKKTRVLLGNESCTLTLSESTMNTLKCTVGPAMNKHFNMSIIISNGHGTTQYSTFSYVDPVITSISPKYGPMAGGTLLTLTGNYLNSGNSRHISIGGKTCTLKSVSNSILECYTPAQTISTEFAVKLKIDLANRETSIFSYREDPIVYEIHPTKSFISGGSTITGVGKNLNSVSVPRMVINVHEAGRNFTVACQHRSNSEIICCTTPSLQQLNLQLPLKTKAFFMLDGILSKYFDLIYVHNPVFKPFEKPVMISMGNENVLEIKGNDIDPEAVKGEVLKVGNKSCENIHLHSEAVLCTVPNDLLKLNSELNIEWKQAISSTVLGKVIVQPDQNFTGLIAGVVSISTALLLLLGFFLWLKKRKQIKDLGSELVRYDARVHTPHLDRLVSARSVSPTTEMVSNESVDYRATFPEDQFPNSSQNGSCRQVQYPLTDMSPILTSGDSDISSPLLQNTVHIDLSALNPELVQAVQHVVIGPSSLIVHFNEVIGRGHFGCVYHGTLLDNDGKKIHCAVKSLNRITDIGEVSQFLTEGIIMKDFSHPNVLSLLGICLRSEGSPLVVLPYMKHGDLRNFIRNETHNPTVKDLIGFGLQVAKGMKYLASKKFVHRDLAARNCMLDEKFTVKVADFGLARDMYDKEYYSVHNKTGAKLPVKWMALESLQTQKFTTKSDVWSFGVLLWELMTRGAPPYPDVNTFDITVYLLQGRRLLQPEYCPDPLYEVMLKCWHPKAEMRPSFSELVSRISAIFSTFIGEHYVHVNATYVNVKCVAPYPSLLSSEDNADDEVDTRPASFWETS
In words: affinity on HUVEC against affinity on Detroit-562, flow cytometry, pH 7.4. On the procedure: (§1) Measurement of the affinity of pH-engineered antibodies specific for MET was performed by FACS analysis on cell lines with ranges of cMET expression; Detroit-562 cells (ATCC; CCL-138), NCI-H1975 (ATCC CRL-5908) and HUVEC (C2519A, Lonza). Cell lines selected for this study were obtained from commercial sources and cultured using manufacturer recommended conditions. All cell lines were cultured upon receipt, expanded and cryopreserved at a similar passage number for use in the affinity experiments. Briefly, 1.0×10\hat{ }5 cells that express MET are plated per well in a 96-well plate in 100 μL media. The cells are washed two times with 200 μL of FACS buffer (1×PBS containing 3% Fetal Bovine Serum) at pH 7.4. The purified protein samples are diluted into FACS buffer at pH 7.4, for a titration from 100 nM to 1 pM, and added to the cells and allowed to bind for 2 hours on ice. After incubation with the primary antibodies, cells are washed twice as before, and then 100 μl of secondary goat anti-Human AF488 (IgG Cross-Adsorbed polyclonal secondary antibody), diluted 1:200, is added in FACS buffer pH 7.4, and incubated for 1 hour on ice. The plates are washed twice Binding is read on a flow cytometer (Accuri C6, BD Biosciences). Binding is observed as a shift in the FL1 signal (as a mean fluorescence intensity) versus secondary alone.
(In general: Flow cytometry measures light scatter and fluorescence of single cells or particles in a stream.)

Test [4] has as its target T2, MET Proto-Oncogene, Receptor Tyrosine …. As to the kind of experiment: flow cytometry titration on HUVEC cells (8k/cell), pH 7.4; printed as Affinity at pH 7.4. On the procedure: as §1
Test [5] shares this target. As to the kind of experiment: flow cytometry titration on Detroit-562 cells (125K/cell), pH 7.4; printed as Affinity at pH 7.4. How it is done:
as §1

For test [6], the target named is T1, MET (cMET, Sino Biological Cat. No. …). As to the kind of experiment: BLI: antibody captured on anti-human Fc biosensor, MET in solution; three runs: pH 7.4 throughout (black), pH 6.4 throughout (light grey), association at pH 7.4 then release at lower pH (dark grey; key on D00015: pH 5.4; legend paragraph 84: pH 6.4); association 0-120 s. This is another data set of the same source.

Test [7] shares this target. The description is as above. The source holds these as a separate data set.
For test [8] the target is unchanged. The test is described as above. This is another data set of the same source.

This note sets out measurements from US20240101688A1 (MYTHIC THERAPEUTICS, published 2024).

T1 sequence (P08581 25-932 limits assumed): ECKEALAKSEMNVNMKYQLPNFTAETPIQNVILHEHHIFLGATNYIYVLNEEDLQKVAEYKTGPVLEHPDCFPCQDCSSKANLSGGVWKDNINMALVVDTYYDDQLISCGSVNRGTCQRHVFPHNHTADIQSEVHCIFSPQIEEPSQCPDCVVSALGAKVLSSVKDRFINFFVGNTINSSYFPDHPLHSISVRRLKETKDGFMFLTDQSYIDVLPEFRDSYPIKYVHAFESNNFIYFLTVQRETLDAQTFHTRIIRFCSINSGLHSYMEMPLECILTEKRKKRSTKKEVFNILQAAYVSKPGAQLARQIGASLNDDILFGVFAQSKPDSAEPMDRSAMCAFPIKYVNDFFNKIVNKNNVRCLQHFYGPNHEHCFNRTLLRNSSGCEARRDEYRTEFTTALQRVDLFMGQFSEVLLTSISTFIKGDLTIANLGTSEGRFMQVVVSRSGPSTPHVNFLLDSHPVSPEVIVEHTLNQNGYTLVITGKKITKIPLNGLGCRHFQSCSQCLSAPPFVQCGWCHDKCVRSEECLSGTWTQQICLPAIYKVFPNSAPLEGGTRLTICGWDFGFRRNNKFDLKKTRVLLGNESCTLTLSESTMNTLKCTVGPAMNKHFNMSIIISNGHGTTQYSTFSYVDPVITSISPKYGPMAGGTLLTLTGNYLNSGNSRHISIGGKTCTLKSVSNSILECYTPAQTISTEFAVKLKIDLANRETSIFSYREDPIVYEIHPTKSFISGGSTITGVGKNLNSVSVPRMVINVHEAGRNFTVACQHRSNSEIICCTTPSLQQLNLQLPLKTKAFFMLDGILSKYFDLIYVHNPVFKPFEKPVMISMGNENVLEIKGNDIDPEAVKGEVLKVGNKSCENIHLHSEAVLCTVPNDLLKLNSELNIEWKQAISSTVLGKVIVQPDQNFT

B1: MYT4942 (antibody, V domains shown)
VH: QVQLVQSGAEVKKPGASVKVSCKASGHIFTAYTMHWVRQAPGQGLEWMGWIKPNNGLANYAQKFQGRVTMTRDTSISTAYMELSRLRSDDTAVYYCARSEITHEFDHWGQGTLVTVSS
VL: DIVMTQSPDSLAVSLGERATINCKSSESVDSYANSHLHWYQQKPGQPPKLLIYRASTRESGVPDRFSGSGSGTDFTLTISSLQAEDVAVYYCQQSKEDPLTFGGGTKVEIKR
notes: Telisotuzumab variant
Regarding B1, in test [1], the binding result is on record as “binds”.

B2: MYT4826 (antibody, V domains shown)
VH: QVQLVQSGAEVKKPGASVKVSCKASGYTFTHYYMHWVRQAPGQGLEWMGRVNPNRRHTTYNQKFEGRVTMTTDTSTSTAYMELRSLRSDDTAVYYCARANWLDYWGQGTTVTVSS
VL: DIQMTQSPSSLSASVGDRVTITCSVSSSVSSIYLHWYQQKPGKAPKLLIYSTSNLASGVPSRFSGSGSGTDFTLTISSLQPEDFATYYCQVYSGYPLTFGGGTKVEIKR
notes: Emibetuzumab variant
For the molecule B2, in test [2], the binding result is “binds”.

B3: MYT5309 (antibody, V domains shown)
VH: QVQLVQSGAEVKKPGASVKVSCKASGYTFTHYYMHWVRQAPGQGLEWMGRVNPNRRGTTYNQKFEGRVTMTTDTSTSTAYMELRSLRSDDTAVYYCARANWLDYWGQGTTVTVSS
VL: DIQMTQSPSSLSASVGDRVTITCSVSSSVSSIYLHWYQQKPGKAPKLLIYSTSNLASGVPSRFSGSGSGTDFTLTISSLQPEDFATYYCQHYSGYPLTFGGGTKVEIKR
notes: Emibetuzumab variant
By Kd is commonly meant the free concentration of one partner at which half of the binding sites on the other are occupied at equilibrium, for simple one-to-one binding. With B3, the “Fold Avidity” value in test [3] was over 50 fold. Moreover, the Kd was over 200 nM in test [4] and 1.34 nM in test [5].

B4: MYT4849 (antibody, V domains shown)
VH: QVQLVQSGAEVKKPGASVKVSCKASGYTFTDYYMHWVRQAPGQGLEWMGRVNPNRRGTTYNQKFEGRVTMTTDTSTSTAYMELRSLRSDDTAVYYCARANWLDYWGQGTTVTVSS
VL: DIQMTQSPSSLSASVGDRVTITCSVSSSVSSIHLHWYQQKPGKAPKLLIYHTSNLASGVPSRFSGSGSGTDFTLTISSLQPEDFATYYCQVYSGYPLTFGGGTKVEIKR
notes: Emibetuzumab variant
With B4, the binding result in test [6] is given as “binds”.

B5: MYT4837 (antibody, V domains shown)
VH: QVQLVQSGAEVKKPGASVKVSCKASGYTFTHYYMHWVRQAPGQGLEWMGRVNPHRRHTTYNQKFEGRVTMTTDTSTSTAYMELRSLRSDDTAVYYCARANWLDYWGQGTTVTVSS
VL: DIQMTQSPSSLSASVGDRVTITCSVSSSVSSIYLHWYQQKPGKAPKLLIYSTSNLASGVPSRFSGSGSGTDFTLTISSLQPEDFATYYCQVYSGYPLTFGGGTKVEIKR
notes: Emibetuzumab variant
Take B5: the “Fold Avidity” value in test [3] is over 100 fold. Besides, the dissociation constant Kd in test [4] is over 100 nM; in test [5] it was 1.02 nM.

B6: MYT4827 (antibody, V domains shown)
VH: QVQLVQSGAEVKKPGASVKVSCKASGYTFTHYYMHWVRQAPGQGLEWMGRVNPNRRGTTYNQKFEGRVTMTTDTSTSTAYMELRSLRSDDTAVYYCARAHWLDYWGQGTTVTVSS
VL: DIQMTQSPSSLSASVGDRVTITCSVSSSVSSIYLHWYQQKPGKAPKLLIYSTSNLASGVPSRFSGSGSGTDFTLTISSLQPEDFATYYCQVYSGYPLTFGGGTKVEIKR
notes: Emibetuzumab variant
As for B6, the binding result in test [7] is given as “binds”.

B7: MYT4888 (antibody, V domains shown)
VH: QVQLVQSGAEVKKPGASVKVSCKASGYTFTSYWMHWVKQAPGQGLDWIGYIKPSTDNTEYNQKFKDKATLTADKSTSTAYMELSSLRSEDTAVYYCARSYGNYPLHDYWGQGTTVTVSS
VL: QIVLTQSPAILSLSPGERATLSCSASSSVTSNYLYWYQQKPGSSPKLLIYSTSNLASGVPARFSGSGSGTSYTLTISSLEAEDAASYFCHQWSSYPPTFGSGTKLEIKR
notes: P3D12 variant; also called MYTH4888
Consider B7, for which the binding result in test [8] was “binds”.

B8: MYT4305 (P3D12) (antibody, V domains shown)
VH: QVQLVQSGAEVKKPGASVKVSCKASGYTFTSYWMHWVKQAPGQGLDWIGYIKPSTDNTEYNQKFKDKATLTADKSTSTAYMELSSLRSEDTAVYYCARSYGNYPLMDYWGQGTTVTVSS
VL: QIVLTQSPAILSLSPGERATLSCSASSSVTSNYLYWYQQKPGSSPKLLIYSTSNLASGVPARFSGSGSGTSYTLTISSLEAEDAASYFCHQWSSYPPTFGSGTKLEIK
notes: Human IgG1; also called P3D12 anti-cMET
As to B8, in test [3], the “Fold Avidity” value was 0.7 fold. Also, the Kd in test [4] is 0.2 nM; in test [5], 0.292 nM.

B9: MYT5344 (antibody, V domains shown)
VH: QVQLVQSGAEVKKPGASVKVSCKASGYTFTSYWMHWVKQAPGQGLDWIGYIKHSTDNTEYNQKFKDKATLTADKSTSTAYMELSSLRSEDTAVYYCARSYGNYPLMDYWGQGTTVTVSS
VL: QIVLTQSPAILSLSPGERATLSCSASSSVTSHYLYWYQQKPGSSPKLLIYSTSNLASGVPARFSGSGSGTSYTLTISSLEAEDAASYFCHQWSSYPPTFGSGTKLEIKR
notes: P3D12 variant
Regarding B9, the binding result in test [2] is given as “binds”.

B10: MYT5367 (antibody, V domains shown)
VH: QVQLVQSGAEVKKPGASVKVSCKASGYTFTSYWMHWVKQAPGQGLDWIGHIKPSTDNTEYNQKFKDKATLTADKSTSTAYMELSSLRSEDTAVYYCARSYGNYPLMDYWGQGTTVTVSS
VL: QIVLTQSPAILSLSPGERATLSCSASSSVTSNYLYWYQQKPGSSPKLLIYSTSNLASGVPARFSGSGSGTSYTLTISSLEAEDAASYFCHQWSHYHPTFGSGTKLEIKR
notes: P3D12 variant
On to B10, for which the binding result in test [2] is given as “binds”.

B11: MYT5351 (antibody, V domains shown)
VH: QVQLVQSGAEVKKPGASVKVSCKASGYTFTSYWMHWVKQAPGQGLDWIGHIKPSTDNTEYNQKFKDKATLTADKSTSTAYMELSSLRSEDTAVYYCARSYGNYPLMDYWGQGTTVTVSS
VL: QIVLTQSPAILSLSPGERATLSCSASSSVTSNYLYWYQQKPGSSPKLLIYSHSNLASGVPARFSGSGSGTSYTLTISSLEAEDAASYFCHQWSSYPPTFGSGTKLEIKR
notes: P3D12 variant
Regarding B11, in test [3], the “Fold Avidity” value was over 200 fold. The Kd in test [4] is over 100 nM; in test [5], 0.486 nM.
